Measured values from publication PMC10325919, “A potential histone-chaperone activity for the MIER1 histone deacetylase complex” (Nucleic Acids Research, 2023).
Starred links: 1 amine or outer side, 2 acyl side, 3 side chain; linkers in the order of their positions; H or OH if unused. Non-standard residues stand in square brackets, D forms with d. No end group written: not given here. Lys(Me3) = C[N+](C)(C)CCCC[C@H](N)C(=O)O; Ethylenediamine = C(CN[*:2])N[*:1]; 5‑FAM = 5-carboxyfluorescein; GABA = NCCCC(=O)O

T1: E. coli expressed BAHD1(aa:588–780) (UniProt Q8TBE0 588-780)
T1 construct: BAHD1, BAH domain, aa 588-780; also called BAH domain of BAHD1; source: E. coli expressed
T1 sequence (looked up): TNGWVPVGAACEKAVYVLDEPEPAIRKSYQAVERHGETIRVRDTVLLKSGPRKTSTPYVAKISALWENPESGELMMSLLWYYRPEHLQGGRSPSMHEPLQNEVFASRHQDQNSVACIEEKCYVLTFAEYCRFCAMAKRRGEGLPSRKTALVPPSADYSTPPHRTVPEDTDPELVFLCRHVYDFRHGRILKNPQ


Assays:
[1] = target: T1, E. coli expressed BAHD1(aa:588–780); assay: fluorescence polarisation; 5 nM 5-FAM labelled histone peptide, BAHD1(aa:588–780) 0–142 μM, 25 mM Tris/Cl pH 7.5, 50 mM NaCl, 15 min at 37°C; one-site binding model; details: both partners purified
[2] = target: Full length HDAC1(aa:1–482) (UniProt Q13547 1-482); assay: co-IP + SEC; FLAG-tagged bait transfected in HEK293F (with untagged partners where stated); lysate on anti-FLAG M2 resin, washed in 50 mM Tris/HCl pH 7.5, 50 mM potassium acetate, eluted by TEV protease, then Superdex S200 gel filtration; fractions on SDS-PAGE, bands identified by mass spectrometry; details: partners not purified
Chain of Full length HDAC1(aa:1–482) (Q13547 whole entry): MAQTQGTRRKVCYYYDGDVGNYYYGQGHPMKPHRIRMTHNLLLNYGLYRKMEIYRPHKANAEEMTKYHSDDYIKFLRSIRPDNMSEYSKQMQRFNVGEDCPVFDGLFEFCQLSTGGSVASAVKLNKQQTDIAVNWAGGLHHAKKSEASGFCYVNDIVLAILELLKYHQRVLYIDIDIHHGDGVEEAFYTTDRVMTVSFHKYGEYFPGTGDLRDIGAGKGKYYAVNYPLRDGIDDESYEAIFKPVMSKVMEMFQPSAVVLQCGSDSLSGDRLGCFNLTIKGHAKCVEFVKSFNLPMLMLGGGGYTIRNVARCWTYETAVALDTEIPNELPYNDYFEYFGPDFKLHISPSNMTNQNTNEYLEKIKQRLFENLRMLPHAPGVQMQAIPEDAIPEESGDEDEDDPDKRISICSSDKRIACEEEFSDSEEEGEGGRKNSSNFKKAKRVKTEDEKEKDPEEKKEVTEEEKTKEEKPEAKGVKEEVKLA

binding result [1]	binding result [2]	Binder
binds		PRKQLATKAAR[Lys(Me3)]SAPATGG-{Ethylenediamine-GABA-5‑FAM} (Histone H3 tail peptide, named H3 16–35; also called H3 histone tail bearing a K27me3 modification; source: synthetic peptide, bought: Cambridge Research Biochemicals) [H3 16–35 K27me3 peptide]
	binds	FLAG-tagged MIER1 ELM2-SANT (aa:171–350) (domain or fragment, UniProt Q8N108 171-350, looked up, The tag holds the protein on the anti-FLAG resin; it is cut off by TEV protease for elution, before gel filtration and SEC-MALS; also called isolated ELM2-SANT domain; source: HEK293F, co-transfected with HDAC1; anti-FLAG resin, TEV, Superdex S200; not shown: 10xHis-3xFLAG, N-terminal, kept) DYIPSEDWKKEIMVGSMFQAEIPVGICRYKENEKVYENDDQLLWDPEYLPEDKVIIFLKDASRRTGDEKGVEAIPEGSHIKDNEQALYELVKCNFDTEEALRRLRFNVKAAREELSVWTEEECRNFEQGLKAYGKDFHLIQANKVRTRSVGECVAFYYMWKKSERYDFFAQQTRFGKKKY
